Results published in publication PMC8959893, “T-Cell Responses to Immunodominant Listeria Epitopes Limit Vaccine-Directed Responses to the Colorectal Cancer Antigen, Guanylyl Cyclase C” (Frontiers in Immunology, 2022).

Target: T1, peptide-H-2K^d complex (Mus musculus, UniProt P01902)
T1 construct: expressed in transfected cells; host or cells: RMA-S (TAP-deficient), stably expressing H-2K^d; provided by Dr. Sean Murphy (University of Washington)
T1 sequence (P01902 22-368): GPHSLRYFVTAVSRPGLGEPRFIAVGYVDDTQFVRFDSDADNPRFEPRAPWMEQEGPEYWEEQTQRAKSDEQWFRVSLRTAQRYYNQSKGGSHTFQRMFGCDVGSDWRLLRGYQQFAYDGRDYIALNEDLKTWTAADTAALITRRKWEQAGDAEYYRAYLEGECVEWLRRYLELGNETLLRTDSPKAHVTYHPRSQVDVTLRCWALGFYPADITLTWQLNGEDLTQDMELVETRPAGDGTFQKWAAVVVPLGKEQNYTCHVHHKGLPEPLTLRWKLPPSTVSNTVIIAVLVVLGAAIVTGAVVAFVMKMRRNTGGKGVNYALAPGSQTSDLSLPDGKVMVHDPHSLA
T1 sequence (P01887 21-119 partner): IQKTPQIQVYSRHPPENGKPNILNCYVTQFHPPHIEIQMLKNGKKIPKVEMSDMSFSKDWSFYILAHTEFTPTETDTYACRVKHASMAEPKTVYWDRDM
Format: cell-based
Settings: for half-life (t1/2) of peptide-H-2K^d complex: Figure 4D, flow cytometry MFI, nonlinear regression of two experiments
Method: As previously described ([27]), RMA-S-H-2K^d cells were incubated overnight at 26°C with 30 ug/mL of each peptide. In the morning, cells were incubated 2 h at 37°C, washed 3x with PBS to remove unbound peptide, and incubated an additional 2, 4, or 6 h at 37°C. Cells were then stained with anti-H-2K^d-PE antibody (Invitrogen, Clone SF1-1.1.1), and surface H-2K^d was quantified as mean fluorescence intensity (MFI) by flow cytometry. The percent change in surface peptide-H-2K^d complexes was calculated using the formula, MFI^peptide−MFI^no peptide/MFI^0 hrs−MFI^no peptide×100 ([28]). The t1/2 for the peptide-MHC complex was calculated by nonlinear regression.

[1] = RMA-S-H-2K^d cells, 30 ug/mL peptide overnight at 26°C, 2 h at 37°C, washed, additional 2, 4 or 6 h at 37°C

| Substance | half-life (t1/2) of peptide-H-2K^d complex [1] | Dissociation from MHC, fold faster than Lm-derived peptide-H-2K^d complexes (Figure 3, stated in Discussion) | t1/2 of peptide-H-2K^d complex (Figure 3C, RMA-S-H-2K^d cells, 30 ug/mL peptide overnight at 26°C, 2 h at 37°C, washed, additional 2, 4 or 6 h at 37°C, anti-H-2K^d-PE MFI by flow cytometry, nonlinear regression, representative of two experiments) |
| --- | --- | --- | --- |
| GUCY2CF255Y: GUCY2C254-262 peptide variant with F255Y point mutation at an H-2K^d anchoring residue (SYYDVKGDL; UniProt Q3UWA6 254-262, looked up, variant F255Y) | 8.3 h |  |  |
| GUCY2C254-262: dominant H-2K^d-restricted CD8+ T-cell epitope of mouse guanylyl cyclase C, residues 254-262 (SFYDVKGDL; UniProt Q3UWA6 254-262, looked up, fragment) | 2.1 h | > 5 fold | 1.8 h |
| GUCY2CL262I: GUCY2C254-262 peptide variant with L262I point mutation at an H-2K^d anchoring residue (SFYDVKGDI; UniProt Q3UWA6 254-262, looked up, variant L262I) | 1.0 h |  |  |
